For this assay, the target named is Arp2/3 complex (Bos taurus, UniProt A7MB62, CK-666). As to the kind of experiment: fluorescence anisotropy. A general note: In fluorescence polarisation assays a small probe gives low polarisation when free and higher when bound to something large.

B1: cortactin NTA N-terminal acidic region (protein)
chain: MWKASAGHAVSIAQDDAGADDWETDPDFVNDVSEKEQRWGAKTVQGSGHQEHINIHKLRENVFQEHQTLKEKELETGPKASHGY
Regarding B1, the Kd amounted to 1200 nM.

By Kd is commonly meant the constant that tells how readily two partners part at equilibrium. A low value points to tighter binding.

These data come from publication PMC3684959 (2013).
